# Experimental data published in the Human Domainome abundance scans (Beltran et al. 2025).
# ± gives the uncertainty stated by the source.
# B1: Homeobox protein cut-like 1, residues 941 to 1008; numbered along this chain, P39880 (parent)
# chain: QEVDTIELTRQVKEKLAKNGICQRIFGEKVLGLSQGSVSDMLSRPKPWSKLTQKGREPFIRMQLWLNG
# Variants of: B1
# Experiment: abundance fitness (aPCA) (normalised: wild type 0, dead -1); higher = more abundant; growth selection in yeast, the domain comes from the species named
# Conditions: Homo sapiens
row,Variant,abundance fitness
1,I21M,-0.1 ± 0.069
2,I21N,-0.283 ± 0.15
3,I21A,-0.489 ± 0.089
4,E2Y,-0.329 ± 0.03
5,E2W,-0.738 ± 0.033
6,E2A,-0.273 ± 0.027
7,E2L,-0.376 ± 0.026
8,E2Q,-0.093 ± 0.029
9,E2C,-0.375 ± 0.033
10,D4F,-0.35 ± 0.072
11,D4V,-0.581 ± 0.052
12,D4R,-0.368 ± 0.06
13,D4L,-0.572 ± 0.048
14,D4I,-0.503 ± 0.095
15,D4G,-0.312 ± 0.066
16,D4C,-0.243 ± 0.12
17,T9G,-0.047 ± 0.063
18,T9M,-0.384 ± 0.069
19,T9C,-0.087 ± 0.093
20,T9N,-0.348 ± 0.15
21,T9K,-0.109 ± 0.079
22,V12K,-0.183 ± 0.086
23,V12Q,-0.143 ± 0.083
24,V12G,-0.01 ± 0.063

row,Variant,abundance fitness
1,V12T,-0.177 ± 0.062
2,V12C,-0.461 ± 0.35
3,V3T,-0.112 ± 0.085
4,V3S,-0.067 ± 0.058
5,V3Y,-0.227 ± 0.12
6,V3I,0.19 ± 0.091
7,V3F,-0.063 ± 0.073
8,V3L,0.008 ± 0.052
9,I6H,-0.005 ± 0.095
10,I6S,-0.259 ± 0.053
11,I6N,-0.09 ± 0.1
12,I60D,-0.29 ± 0.11
13,I60A,-0.073 ± 0.073
14,I60V,0.025 ± 0.059
15,M41I,-0.016 ± 0.086
16,M41P,-0.289 ± 0.071
17,M41G,-0.239 ± 0.059
18,M41E,-0.335 ± 0.07
19,L42F,-0.158 ± 0.071
20,L42M,-0.215 ± 0.089
21,L42Y,-0.481 ± 0.076
22,L42K,-0.04 ± 0.077
23,L42W,-0.134 ± 0.076
24,L42N,-0.405 ± 0.077

row,Variant,abundance fitness
1,K18S,-0.102 ± 0.057
2,K18L,-0.168 ± 0.047
3,K18F,-0.287 ± 0.089
4,K18C,-0.261 ± 0.14
5,S43G,-0.251 ± 0.055
6,S43A,0.007 ± 0.061
7,S43P,-0.304 ± 0.072
8,S43R,-0.125 ± 0.055
9,S43V,-0.064 ± 0.055
10,D40F,-0.251 ± 0.071
11,D40N,-0.133 ± 0.12
12,L31I,-0.278 ± 0.078
13,L31N,-0.319 ± 0.098
14,L31K,-0.233 ± 0.065
15,Q63G,-0.098 ± 0.056
16,Q63I,-0.2 ± 0.099
17,Q63Y,-0.069 ± 0.087
18,Q63K,0.017 ± 0.072
19,E57I,-0.097 ± 0.099
20,E57G,-0.126 ± 0.087
21,E57S,-0.192 ± 0.058
22,E57D,-0.162 ± 0.14
23,E57K,-0.091 ± 0.078
24,E57L,-0.194 ± 0.042

row,Variant,abundance fitness
1,N67D,-0.21 ± 0.11
2,N67Y,-0.197 ± 0.085
3,N67A,-0.03 ± 0.085
4,N67Q,-0.088 ± 0.1
5,S49G,-0.133 ± 0.069
6,S49M,-0.346 ± 0.069
7,S49D,-0.241 ± 0.096
8,S49E,-0.151 ± 0.083
9,S49Q,-0.169 ± 0.093
10,S49R,-0.011 ± 0.052
11,S49V,-0.177 ± 0.058
12,S49F,-0.19 ± 0.073
13,M62A,-0.141 ± 0.065
14,M62F,0 ± 0.086
15,M62V,-0.388 ± 0.06
16,M62K,-0.793 ± 0.14
17,Q11H,-0.114 ± 0.086
18,Q11R,-0.084 ± 0.039
19,Q11A,-0.13 ± 0.067
20,Q11G,-0.165 ± 0.057
21,Q11S,-0.152 ± 0.047
22,Q11L,-0.125 ± 0.046
23,F26Y,-0.741 ± 0.11
24,F26M,-0.459 ± 0.071

row,Variant,abundance fitness
1,F26E,-0.883 ± 0.093
2,F26W,0.03 ± 0.067
3,F26T,-0.796 ± 0.1
4,F26Q,-0.721 ± 0.098
5,F26N,-0.991 ± 0.19
6,F26H,-0.927 ± 0.15
7,F26G,-0.622 ± 0.078
8,F26V,-0.648 ± 0.061
9,E7S,0.172 ± 0.3
10,K54V,-0.346 ± 0.071
11,K54D,-0.098 ± 0.11
12,K54H,-0.111 ± 0.12
13,K54I,-0.192 ± 0.13
14,K54T,-0.101 ± 0.068
15,K54L,-0.174 ± 0.053
16,K54Y,-0.431 ± 0.11
17,R56T,-0.373 ± 0.082
18,R56N,-1.16 ± 0.23
19,R56W,-0.456 ± 0.062
20,E14N,-0.063 ± 0.21
21,E14C,-0.086 ± 0.083
22,E14F,-0.443 ± 0.12
23,E14K,-0.111 ± 0.094
24,E14L,-0.152 ± 0.059

row,Variant,abundance fitness
1,E14Q,-0.14 ± 0.083
2,K29D,-0.202 ± 0.096
3,K29A,-0.258 ± 0.069
4,K29C,-0.148 ± 0.088
5,K29Y,-0.492 ± 0.095
6,K29R,-0.05 ± 0.049
7,R61E,-0.479 ± 0.086
8,R61C,-0.277 ± 0.1
9,R61Q,-0.131 ± 0.085
10,R61W,-0.619 ± 0.096
11,P45T,-0.224 ± 0.067
12,P45Q,-0.461 ± 0.078
13,P45L,-0.202 ± 0.048
14,P45D,-0.456 ± 0.11
15,R24S,-0.136 ± 0.055
16,R24Y,-0.101 ± 0.1
17,R24W,-0.144 ± 0.065
18,R24V,-0.204 ± 0.062
19,R24E,0.109 ± 0.12
20,R24T,-0.268 ± 0.081
21,R24C,-0.22 ± 0.074
22,K46V,-0.112 ± 0.054
23,K46W,-0.285 ± 0.084
24,K46A,-0.075 ± 0.065

row,Variant,abundance fitness
1,K46Q,-0.041 ± 0.06
2,W48V,-0.672 ± 0.066
3,W48D,-1.08 ± 0.2
4,W48I,-1 ± 0.2
5,W48M,-0.65 ± 0.072
6,W48T,-1.1 ± 0.13
7,T5F,-0.235 ± 0.11
8,T5H,-0.145 ± 0.14
9,T5M,-0.02 ± 0.067
10,T52G,-0.216 ± 0.056
11,T52Y,-0.143 ± 0.13
12,T52F,-0.187 ± 0.12
13,T52S,0.085 ± 0.069
14,T52E,-0.343 ± 0.084
15,N19Q,0.042 ± 0.061
16,N19D,0.17 ± 0.086
17,N19E,0.098 ± 0.059
18,N19L,0.125 ± 0.052
19,S34E,-0.004 ± 0.072
20,S34C,-0.09 ± 0.084
21,S34A,-0.01 ± 0.076
22,S34M,-0.017 ± 0.07
23,S34V,-0.137 ± 0.059
